The values below come from patent US20210284747A1 (CAPELLA BIOSCIENCE, published 2021).

For assay [1], the target named is T1, Recombinant human soluble LIGHT, amino acids 74-240 (R&D Systems 664-LI) (human, UniProt O43557 74-240).
T1 construct: range 74-240; Glycosylated trimer by native MS; also called 74-240 LIGHT
T1 chain: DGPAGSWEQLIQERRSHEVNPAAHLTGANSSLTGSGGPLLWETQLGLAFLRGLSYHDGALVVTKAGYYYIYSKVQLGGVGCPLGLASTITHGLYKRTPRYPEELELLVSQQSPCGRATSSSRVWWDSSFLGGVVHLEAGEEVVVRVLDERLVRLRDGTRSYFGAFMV
Briefly: summary statement comparing soluble LIGHT binding with membrane LIGHT binding; soluble LIGHT preparation not specified.

For assay [2], the target named is T2, Human LIGHT stably expressed on EL4 cells (EL4-LIGHT) (human, UniProt O43557 1-240).
T2 construct: whole, on cells; also called membrane LIGHT
Briefly: flow cytometry competition on EL4-LIGHT cells, co-incubation 40 min 4 C; blocked ligand DcR3-Fc-AF647 0.8 ug/ml; same IC50 as 0.020ug/ml, second unit printed. The method, then: (§1) EL4-LIGHT cells were co-incubated with Alexa Fluor 647 conjugated DcR3-Fc (DcR3-Fc-AF647; 0.8 μg/ml) and graded concentrations (31 μg/ml to 128 μg/ml) of anti-membrane LIGHT antibodies (3B04, 03D12 and 02B111) for 40 min at 4° C. A control, of a mAb that binds both soluble and membrane LIGHT was included (F19 from EP2292663). The samples were washed three times and flow cytometry analysis was performed. Specific mean fluorescence intensity (MFI) obtained from the binding of DcR3-Fc-AF647 to LIGHT on EL4 cells were used to determine the levels of competition binding.
On the technique in general: Flow cytometry measures light scatter and fluorescence of single cells or particles in a stream.

The target in assay [3] is T3, Human LIGHT-32L, on II23 cells (human, UniProt O43557 1-240).
T3 construct: also called II23-LIGHT 32L
T3 chain: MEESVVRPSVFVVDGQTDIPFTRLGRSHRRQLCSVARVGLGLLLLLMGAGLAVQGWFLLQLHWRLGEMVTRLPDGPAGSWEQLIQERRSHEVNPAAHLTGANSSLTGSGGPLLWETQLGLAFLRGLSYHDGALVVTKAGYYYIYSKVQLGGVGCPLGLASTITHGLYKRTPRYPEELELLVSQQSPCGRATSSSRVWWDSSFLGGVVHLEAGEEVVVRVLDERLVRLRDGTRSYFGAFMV
The experiment in a line: flow cytometry on II23-LIGHT 32L cells, 4 ug mAb in 100 uL, goat anti-human Fc gamma-PE; signal as % of the commercial anti-LIGHT-PE. Put shortly: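 Cells blocked with anti-CD16/CD32, then stained 30 min at room temperature with 4 ug mAb per 100 uL, followed by 1:100 goat anti-human Fcγ-PE at 4° C. for 30 min. After paraformaldehyde fixation, signal read by flow cytometry.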

Assay [4] has as its target T2, Human LIGHT stably expressed on EL4 …. The experiment in a line: flow cytometry competition on EL4-LIGHT cells, co-incubation 40 min 4 C; blocked ligand DcR3-Fc-AF647 0.8 ug/ml; same IC50 as 0.031ug/ml, second unit printed. Here is the method: as §1

For orientation: IC50 means the concentration needed to halve the response being measured.

B1: 3B04 chimeric IgG4 mAb (antibody, V domains shown)
VH: QVQLQQPGAELVRPGASVTLSCKASGYTFTDYEMHWVKQTPVHGLEWIGEIDPETGDTAYSQKFKGKATLTADKSSSTAYMEFRSLTSEDSAVYYCSRETDYFFDYWGQGTTLTVSS
VL: DIQMTQTPASLSASVGETVTITCGASENIYGALNWYQRKQGKSPQLLIYGATNLADGMSSRFSGSGSGRQYSLKISSLHPDDFATYYCQNVLTTPWTFGGGTKLEIK
notes: also called Parental 3B04
Turning to B1, in assay [1], the “fold less specific to soluble LIGHT than membrane LIGHT” value was over 100 fold. The IC50 in assay [2] worked out at 138 pM. Further, in assay [3], the binding result is listed as “binds”.

B2: 3D12 chimeric IgG4 mAb (antibody, V domains shown)
VH: QVQLQQPGAELVRPGASVTLSCKASDYTFTDSEIHWVKQTPVHGLEWIGEIDPETGGTAYNQKFKGKATLTADKSSSTAYMELRSLTSEDSAVYYCSRETDYFFDYWGQGTTLTVSS
VL: DIQMTQSPASLSASVGETVTITCGASENIYGALNWYQRKQGKSPQLLIYGATNLADGMSSRFSGSGSGRQYSLKISSLHPDDVATYYCQNVLSTPWTFGGGTKLEIK
notes: Chimeric human IgG4 (S-to-P, L-to-E) with human CL, as m1; also called Parental 3D12; 03D12
Consider B2, for which the IC50 in assay [4] was 214 pM. For the same molecule, in assay [3], the binding result is reported as “binds”.
